Laboratory results as given in US20160272683A1 (Novo Nordisk, published 2016).
Numbered stars: 1 amine (or outer) side, 2 acyl side, 3 side chain; on linkers, the order of the positions; unused ones are H or OH. * marks the point of attachment. C20 diacid = O=C(O)CCCCCCCCCCCCCCCCCCC(=O)*; C18 diacid = O=C(O)CCCCCCCCCCCCCCCCC(=O)*; C16 diacid = O=C(O)CCCCCCCCCCCCCCC(=O)*; γGlu = O=C(O)[C@H](CCC(=O)[*:2])N[*:1]; C14 diacid = O=C(O)CCCCCCCCCCCCC(=O)*; C12 diacid = O=C(O)CCCCCCCCCCC(=O)*; Palmitoyl = CCCCCCCCCCCCCCCC(=O)*; AEEA = NCCOCCOCC(=O)O

T1: human calcitonin receptor (human, UniProt P30988 25-474)
T1 construct: whole, on cells; also called hCT-R; hCTR
T1 sequence (looked up): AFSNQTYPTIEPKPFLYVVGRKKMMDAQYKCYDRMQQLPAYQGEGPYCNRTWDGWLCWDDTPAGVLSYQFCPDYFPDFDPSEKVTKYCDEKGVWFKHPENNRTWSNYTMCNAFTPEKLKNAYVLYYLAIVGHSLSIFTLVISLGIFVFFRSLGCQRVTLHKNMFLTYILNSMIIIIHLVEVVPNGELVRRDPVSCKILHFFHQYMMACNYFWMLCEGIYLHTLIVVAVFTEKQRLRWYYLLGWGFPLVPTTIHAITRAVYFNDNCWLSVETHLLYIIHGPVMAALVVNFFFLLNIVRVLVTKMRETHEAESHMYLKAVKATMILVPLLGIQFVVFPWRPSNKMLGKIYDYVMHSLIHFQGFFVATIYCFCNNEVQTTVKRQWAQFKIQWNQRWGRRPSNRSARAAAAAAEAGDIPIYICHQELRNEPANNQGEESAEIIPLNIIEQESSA

B1: [N-terminal(C18 diacid)]mimylin (peptide)
peptide: {C18 diacid}-EASELSTAALGRLSAELHELATLPRTETGPESP-NH2
SMILES: CC(C)C[C@H](NC(=O)[C@H](C)NC(=O)[C@H](C)NC(=O)[C@@H](NC(=O)[C@H](CO)NC(=O)[C@H](CC(C)C)NC(=O)[C@H](CCC(=O)O)NC(=O)[C@H](CO)NC(=O)[C@H](C)NC(=O)[C@H](CCC(=O)O)NC(=O)CCCCCCCCCCCCCCCCC(=O)O)[C@@H](C)O)C(=O)NCC(=O)N[C@@H](CCCNC(=N)N)C(=O)N[C@@H](CC(C)C)C(=O)N[C@@H](CO)C(=O)N[C@@H](C)C(=O)N[C@@H](CCC(=O)O)C(=O)N[C@@H](CC(C)C)C(=O)N[C@@H](Cc1c[nH]cn1)C(=O)N[C@@H](CCC(=O)O)C(=O)N[C@@H](CC(C)C)C(=O)N[C@@H](C)C(=O)N[C@H](C(=O)N[C@@H](CC(C)C)C(=O)N1CCC[C@H]1C(=O)N[C@@H](CCCNC(=N)N)C(=O)N[C@H](C(=O)N[C@@H](CCC(=O)O)C(=O)N[C@H](C(=O)NCC(=O)N1CCC[C@H]1C(=O)N[C@@H](CCC(=O)O)C(=O)N[C@@H](CO)C(=O)N1CCC[C@H]1C(N)=O)[C@@H](C)O)[C@@H](C)O)[C@@H](C)O
notes: also called Ex. #2
B2: [N-terminal(C18 diacid-gGlu), des1, 5V, 9V, 10V, 20V, 30S, 31G]mimylin (peptide)
peptide: {C18 diacid-γGlu}-ASEVSTAVVGRLSAELHEVATLPRTETGSGSP-NH2
SMILES: CC(C)C[C@H](NC(=O)[C@H](CCCNC(=N)N)NC(=O)CNC(=O)[C@@H](NC(=O)[C@@H](NC(=O)[C@H](C)NC(=O)[C@@H](NC(=O)[C@H](CO)NC(=O)[C@@H](NC(=O)[C@H](CCC(=O)O)NC(=O)[C@H](CO)NC(=O)[C@H](C)NC(=O)CC[C@H](NC(=O)CCCCCCCCCCCCCCCCC(=O)O)C(=O)O)C(C)C)[C@@H](C)O)C(C)C)C(C)C)C(=O)N[C@@H](CO)C(=O)N[C@@H](C)C(=O)N[C@@H](CCC(=O)O)C(=O)N[C@@H](CC(C)C)C(=O)N[C@@H](Cc1c[nH]cn1)C(=O)N[C@@H](CCC(=O)O)C(=O)N[C@H](C(=O)N[C@@H](C)C(=O)N[C@H](C(=O)N[C@@H](CC(C)C)C(=O)N1CCC[C@H]1C(=O)N[C@@H](CCCNC(=N)N)C(=O)N[C@H](C(=O)N[C@@H](CCC(=O)O)C(=O)N[C@H](C(=O)NCC(=O)N[C@@H](CO)C(=O)NCC(=O)N[C@@H](CO)C(=O)N1CCC[C@H]1C(N)=O)[C@@H](C)O)[C@@H](C)O)[C@@H](C)O)C(C)C
B3: [N-terminal(C18 diacid-gGlu), des1, 4Q, 16Q, 30S, 31G]mimylin (peptide)
peptide: {C18 diacid-γGlu}-ASQLSTAALGRLSAQLHELATLPRTETGSGSP-NH2
SMILES: CC(C)C[C@H](NC(=O)[C@H](C)NC(=O)[C@H](C)NC(=O)[C@@H](NC(=O)[C@H](CO)NC(=O)[C@H](CC(C)C)NC(=O)[C@H](CCC(N)=O)NC(=O)[C@H](CO)NC(=O)[C@H](C)NC(=O)CC[C@H](NC(=O)CCCCCCCCCCCCCCCCC(=O)O)C(=O)O)[C@@H](C)O)C(=O)NCC(=O)N[C@@H](CCCNC(=N)N)C(=O)N[C@@H](CC(C)C)C(=O)N[C@@H](CO)C(=O)N[C@@H](C)C(=O)N[C@@H](CCC(N)=O)C(=O)N[C@@H](CC(C)C)C(=O)N[C@@H](Cc1c[nH]cn1)C(=O)N[C@@H](CCC(=O)O)C(=O)N[C@@H](CC(C)C)C(=O)N[C@@H](C)C(=O)N[C@H](C(=O)N[C@@H](CC(C)C)C(=O)N1CCC[C@H]1C(=O)N[C@@H](CCCNC(=N)N)C(=O)N[C@H](C(=O)N[C@@H](CCC(=O)O)C(=O)N[C@H](C(=O)NCC(=O)N[C@@H](CO)C(=O)NCC(=O)N[C@@H](CO)C(=O)N1CCC[C@H]1C(N)=O)[C@@H](C)O)[C@@H](C)O)[C@@H](C)O
notes: also called Ex. #87
B4: [N-terminal(C18 diacid-gGlu), des1, 4Q, 30S, 31G]mimylin (peptide)
peptide: {C18 diacid-γGlu}-ASQLSTAALGRLSAELHELATLPRTETGSGSP-NH2
SMILES: CC(C)C[C@H](NC(=O)[C@H](C)NC(=O)[C@H](C)NC(=O)[C@@H](NC(=O)[C@H](CO)NC(=O)[C@H](CC(C)C)NC(=O)[C@H](CCC(N)=O)NC(=O)[C@H](CO)NC(=O)[C@H](C)NC(=O)CC[C@H](NC(=O)CCCCCCCCCCCCCCCCC(=O)O)C(=O)O)[C@@H](C)O)C(=O)NCC(=O)N[C@@H](CCCNC(=N)N)C(=O)N[C@@H](CC(C)C)C(=O)N[C@@H](CO)C(=O)N[C@@H](C)C(=O)N[C@@H](CCC(=O)O)C(=O)N[C@@H](CC(C)C)C(=O)N[C@@H](Cc1c[nH]cn1)C(=O)N[C@@H](CCC(=O)O)C(=O)N[C@@H](CC(C)C)C(=O)N[C@@H](C)C(=O)N[C@H](C(=O)N[C@@H](CC(C)C)C(=O)N1CCC[C@H]1C(=O)N[C@@H](CCCNC(=N)N)C(=O)N[C@H](C(=O)N[C@@H](CCC(=O)O)C(=O)N[C@H](C(=O)NCC(=O)N[C@@H](CO)C(=O)NCC(=O)N[C@@H](CO)C(=O)N1CCC[C@H]1C(N)=O)[C@@H](C)O)[C@@H](C)O)[C@@H](C)O
notes: also called Ex. #78
B5: [N-terminal(C20 diacid-gGlu), 1A, 23Y, 30S, 31G]mimylin (peptide)
peptide: {C20 diacid-γGlu}-AASELSTAALGRLSAELHELATYPRTETGSGSP-NH2
SMILES: CC(C)C[C@H](NC(=O)[C@H](C)NC(=O)[C@H](C)NC(=O)[C@@H](NC(=O)[C@H](CO)NC(=O)[C@H](CC(C)C)NC(=O)[C@H](CCC(=O)O)NC(=O)[C@H](CO)NC(=O)[C@H](C)NC(=O)[C@H](C)NC(=O)CC[C@H](NC(=O)CCCCCCCCCCCCCCCCCCC(=O)O)C(=O)O)[C@@H](C)O)C(=O)NCC(=O)N[C@@H](CCCNC(=N)N)C(=O)N[C@@H](CC(C)C)C(=O)N[C@@H](CO)C(=O)N[C@@H](C)C(=O)N[C@@H](CCC(=O)O)C(=O)N[C@@H](CC(C)C)C(=O)N[C@@H](Cc1c[nH]cn1)C(=O)N[C@@H](CCC(=O)O)C(=O)N[C@@H](CC(C)C)C(=O)N[C@@H](C)C(=O)N[C@H](C(=O)N[C@@H](Cc1ccc(O)cc1)C(=O)N1CCC[C@H]1C(=O)N[C@@H](CCCNC(=N)N)C(=O)N[C@H](C(=O)N[C@@H](CCC(=O)O)C(=O)N[C@H](C(=O)NCC(=O)N[C@@H](CO)C(=O)NCC(=O)N[C@@H](CO)C(=O)N1CCC[C@H]1C(N)=O)[C@@H](C)O)[C@@H](C)O)[C@@H](C)O
notes: also called Ex. #57
B6: [N-terminal(C20 diacid-gGlu), 23Y, 30S, 31G]mimylin (peptide)
peptide: {C20 diacid-γGlu}-EASELSTAALGRLSAELHELATYPRTETGSGSP-NH2
SMILES: CC(C)C[C@H](NC(=O)[C@H](C)NC(=O)[C@H](C)NC(=O)[C@@H](NC(=O)[C@H](CO)NC(=O)[C@H](CC(C)C)NC(=O)[C@H](CCC(=O)O)NC(=O)[C@H](CO)NC(=O)[C@H](C)NC(=O)[C@H](CCC(=O)O)NC(=O)CC[C@H](NC(=O)CCCCCCCCCCCCCCCCCCC(=O)O)C(=O)O)[C@@H](C)O)C(=O)NCC(=O)N[C@@H](CCCNC(=N)N)C(=O)N[C@@H](CC(C)C)C(=O)N[C@@H](CO)C(=O)N[C@@H](C)C(=O)N[C@@H](CCC(=O)O)C(=O)N[C@@H](CC(C)C)C(=O)N[C@@H](Cc1c[nH]cn1)C(=O)N[C@@H](CCC(=O)O)C(=O)N[C@@H](CC(C)C)C(=O)N[C@@H](C)C(=O)N[C@H](C(=O)N[C@@H](Cc1ccc(O)cc1)C(=O)N1CCC[C@H]1C(=O)N[C@@H](CCCNC(=N)N)C(=O)N[C@H](C(=O)N[C@@H](CCC(=O)O)C(=O)N[C@H](C(=O)NCC(=O)N[C@@H](CO)C(=O)NCC(=O)N[C@@H](CO)C(=O)N1CCC[C@H]1C(N)=O)[C@@H](C)O)[C@@H](C)O)[C@@H](C)O
notes: also called Ex. #34

Molecular target: T1, human calcitonin receptor
Assay: whole-cell competition vs 125I-human calcitonin (Assay VIIa)
Method in brief: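 BHK tk'ts 13 cells stably co-expressing human calcitonin receptor and a CRE-luciferase reporter, seeded overnight at 37 °C. Bound tracer counted by scintillation after cold HBSS washes and NaOH/SDS lysis; IC₅₀ from one-site competition fit taken as receptor affinity.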

| IC50 [nM] | Binder |
| --- | --- |
| 6.51 | {C14 diacid-γGlu-γGlu-AEEA-AEEA-AEEA-AEEA}-EASELSTAALGRLSAELHELATLPRTETGPESP-NH2 (also called Ex. #5) [[N-terminal(C14 diacid-2xgGlu-4xOEG)]mimylin] |
| 0.798 | B1 |
| 0.352 | {C20 diacid-γGlu-AEEA-AEEA-AEEA}-ASELSTAALGRLSAELHELATLPRTETGSGSP-NH2 (also called Ex. #43) [[N-terminal(C20 diacid-gGlu-3xOEG), des1, 30S, 31G]mimylin] |
| 1.24 | B2 |
| 0.59 | B3 |
| 0.515 | {C14 diacid-γGlu}-ASELSTAALGRLSAELHELATLPRTETGPESP-NH2 (also called Ex. #19) [[N-terminal(C14 diacid-gGlu), des1]mimylin] |
| 0.605 | B4 |
| 1.05 | {C14 diacid}-EASELSTAALGRLSAELHELATLPRTETGPESP-NH2 (also called Ex. #4) [[N-terminal(C14 diacid)]mimylin] |
| 0.413 | {C16 diacid}-EASELSTAALGRLSAELHELATLPRTETGPESP-NH2 (also called Ex. #3) [[N-terminal(C16 diacid)]mimylin] |
| 2.54 | B5 |
| 2.27 | B6 |
| 5.68 | {C12 diacid}-EASELSTAALGRLSAELHELATLPRTETGPESP-NH2 (also called Ex. #6) [[N-terminal(C12 diacid)]mimylin] |
| 0.834 | Palmitoyl-EASELSTAALGRLSAELHELATLPRTETGPESP-NH2 (also called Ex. #7) [[N-terminal(C16)]mimylin] |
